Test results from patent US20260216242A1, “ALPP-SPECIFIC VARIANT ANTIGEN BINDING MOLECULES” (ALMAC DISCOVERY LIMITED, priority 2022, published 2026).
Changes are numbered by the printed parent chain.

T1: ALPI His homodimer (Homo sapiens, UniProt P09923)
T1 sequence (P09923 with tags, fused parts or gaps): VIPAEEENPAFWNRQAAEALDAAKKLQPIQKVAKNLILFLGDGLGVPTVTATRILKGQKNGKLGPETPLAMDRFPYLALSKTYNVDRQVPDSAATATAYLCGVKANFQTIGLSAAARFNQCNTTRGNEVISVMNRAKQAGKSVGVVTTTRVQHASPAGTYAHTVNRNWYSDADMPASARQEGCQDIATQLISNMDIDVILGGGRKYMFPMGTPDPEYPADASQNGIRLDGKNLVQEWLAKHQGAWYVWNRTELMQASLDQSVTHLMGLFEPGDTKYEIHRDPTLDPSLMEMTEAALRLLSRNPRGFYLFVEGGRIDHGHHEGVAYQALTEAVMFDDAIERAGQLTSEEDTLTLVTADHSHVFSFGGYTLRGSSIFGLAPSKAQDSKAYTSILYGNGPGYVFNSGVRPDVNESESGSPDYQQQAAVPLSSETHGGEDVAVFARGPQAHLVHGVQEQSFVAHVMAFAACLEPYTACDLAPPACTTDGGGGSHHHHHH

B1: C05: ALPP targeting VHH domain, SEQ ID NO: 23 (protein)
VHH: QVQLVESGGGLVQAGGSLRLSCAASRRSFSEYAMGWFRQAPGKEREFVAAIGWSGVIEYADSVKGRFTISRDNAKDTVYLQMNSLKPEDTAVYYCAAGLGIRVVSQTPAYWGQGTQVTVSS
B2: E12: ALPP targeting VHH domain, SEQ ID NO: 33 (protein)
VHH: QVQLVESGGGSVQAGGSLRLSCAASGPSISNFAMGWFRQAPGKEREFVAGISWGGGRTNYLDSVKGRFTISRDNAKNMVHLQMNSLKPEDTTVYYCAGRYGRGRDVEYEYDYWGQGTQVTVSS
B3: A12: ALPP targeting VHH domain, SEQ ID NO: 19 (protein)
VHH: QVHLVECGGGSVQAGGFLRLSCAASGPSLSNYAMGRFRQAPGKEREFVAGISWGGGRTSYTDSVKGRFTISRDNAKNTVYLQMNNLEPEDTGVYYCAGRYGRGRNVEYEYDYWGQGTKVTVSS
B4: C06: ALPP targeting VHH domain, SEQ ID NO: 24 (protein)
VHH: B3 VHH with H3Q, C7S, S11L, A14P, F17S, L20V, R36W, E87K, K118Q
B5: E11: ALPP targeting VHH domain, SEQ ID NO: 32 (protein)
VHH: B3 VHH with H3Q, C7S, F17S, Y32F, R36W, A40P, E87K, K118Q
B6: D11: ALPP targeting VHH domain, SEQ ID NO: 29 (protein)
VHH: B3 VHH with H3Q, C7S, F17S, R36W, E87K, K118M
B7: F09: ALPP targeting VHH domain, SEQ ID NO: 36 (protein)
VHH: B3 VHH with H3Q, C7S, F17S, R36W, Y60C, E87K, K118Q
B8: D08: ALPP targeting VHH domain, SEQ ID NO: 27 (protein)
VHH: B3 VHH with C7S, F17S, R36W, E87K

Tests used:
[1] = Thermal stability (Protein Thermal Shift assay); type: physicochemical; conditions: VHH domains, first derivative analysis
Experimental: Thermal stability assays used Applied Biosystems StepOne Real Time PCR system with the Protein Thermal Shift™ dye kit (Thermo Fisher). The assay mix was set up so that the protein was at a final concentration of 20 µM in 20 μL. 5 μL of Thermal Shift™ buffer was added alongside 2.5 μL 8× Thermal Shift™ Dye. Assays were run using the StepOne software and data analysed using Protein Thermal Shift™ software. All data are from first derivative analysis.

ALPI His homodimer = target: T1, ALPI His homodimer; experiment: ELISA binding to ALPI; conditions: 500 ng purified VHH
Experimental: ELISA was used to test the binding and specificity of the VHHs. ALPP CysHis (SEQ ID NO: 263), ALPI His homodimer (SEQ ID NO: 264) or BSA (Thermo Fisher) were coated onto plates and 500 ng of each purified VHH added. Anti-Llama—HRP antibody was used for detection.

ALPP = ALPP (Homo sapiens, UniProt P05187); experiment: BLI binding kinetics, human ALPP immobilised on AR2G sensors (KD / KD apparent); conditions: for hALPP Ka / hALPP Kd: VHH domains
Chain of ALPP (P05187 with tags, fused parts or gaps): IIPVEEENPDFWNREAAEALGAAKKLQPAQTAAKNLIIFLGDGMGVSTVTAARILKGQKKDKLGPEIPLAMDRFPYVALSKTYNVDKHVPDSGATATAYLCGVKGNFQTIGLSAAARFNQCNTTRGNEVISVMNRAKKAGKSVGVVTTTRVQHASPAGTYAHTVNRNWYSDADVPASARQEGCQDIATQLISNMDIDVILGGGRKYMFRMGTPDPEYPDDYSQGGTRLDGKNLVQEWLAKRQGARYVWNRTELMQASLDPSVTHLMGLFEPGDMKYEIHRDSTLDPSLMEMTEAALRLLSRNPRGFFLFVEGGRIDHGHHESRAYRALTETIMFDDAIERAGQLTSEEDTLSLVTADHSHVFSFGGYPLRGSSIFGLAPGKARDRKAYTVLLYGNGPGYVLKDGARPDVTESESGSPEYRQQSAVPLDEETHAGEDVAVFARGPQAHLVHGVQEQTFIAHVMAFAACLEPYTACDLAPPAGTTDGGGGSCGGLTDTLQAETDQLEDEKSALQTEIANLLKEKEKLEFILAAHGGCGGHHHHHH
Experimental: Binding kinetics were determined using the Biolayer Interferometry (BLI) Octet K2 system (Sartorius). Human ALPP, ALPPL2, ALPL (each fused with a cysteine stabilised leucine zipper) and ALPI, (SEQ ID NO: 265, SEQ ID NO: 266 and SEQ ID NO: 267 and SEQ ID NO: 264 respectively) were immobilised in sodium acetate pH5 buffer to AR2G sensors using amine coupling. All assays were conducted in PBS with a plate temperature of 25° C. Ka (M^−1s^−1), Kd (s^−1) and KD (nM) values were determined using Octet Data Analysis High Throughput software (ForteBio) for Biolayer Interferometry.
(§1) Binding kinetics were determined using the Biolayer Interferometry (BLI) Octet K2 or R4 system (Sartorius). Human ALPP, ALPPL2 and ALPL all fused with a disulphide stabilised leucine zipper (SEQ ID NO: 265, SEQ ID NO: 266, and SEQ ID NO: 267) and ALPI His (SEQ ID NO: 264) were used in BLI experiments. For KD apparent measurements, the ALPP proteins were immobilised in sodium acetate pH5 buffer to AR2G sensors using amine coupling. To measure 1:1 interactions, AHC biosensors were used to immobilise Fc-fused proteins. All assays were conducted in HBS-EP with a plate temperature of 25° C. Ka (M^−1s^−1), Kd (s^−1) and KD (nM) values were determined using Octet Data Analysis High Throughput software (Sartorius) for Biolayer Interferometry.
as §1, with “NO:264)” for “NO: 264)”

Molecule | Tm [1] | ELISA hALPI (ALPI His homodimer) | hALPP Ka (ALPP) | hALPP Kd (ALPP) | Kd (ALPP; VHH domains (His-tagged monomers), PBS, 25° C., read-out: hALPP KD)
B1 | 80.6 °C | No Binding | 394000 M⁻¹ s⁻¹ | <1e-07 s⁻¹ | 
B2 | 55.5 °C | No Binding | 39200 M⁻¹ s⁻¹ | 0.000028 s⁻¹ | 
B3 | 76.3 °C | No Binding | 360000 M⁻¹ s⁻¹ | <1e-07 s⁻¹ | < 10 pM
B4 | 71.6 °C | No Binding | 368000 M⁻¹ s⁻¹ | <1e-07 s⁻¹ | 
B5 | 78.0 °C | No Binding | 149000 M⁻¹ s⁻¹ | 0.0000018 s⁻¹ | 
B6 | 78.1 °C | No Binding | 97700 M⁻¹ s⁻¹ | <1e-07 s⁻¹ | 
B7 | 72.1 °C | No Binding | 40600 M⁻¹ s⁻¹ | <1e-07 s⁻¹ | 
B8 | 64.9 °C | No Binding | 175000 M⁻¹ s⁻¹ | <1e-07 s⁻¹ | 
